Numbering of substitutions follows the chain as printed. Names may count otherwise.
B1: GST-p23 CΔ50 (p23 aa1-110, lacking the terminal 50 amino acids) (domain or fragment, human, UniProt Q15185 1-110, looked up)
chain: MQPASAKWYDRRDYVFIEFCVEDSKDVNVNFEKSKLTFSCLGGSDNFKHLNEIDLFHCIDPNDSKHKRTDRSILCCLRKGESGQSWPRLTKERAKLNWLSVDFNNWKDWE
B2: GST-p23 D108A (natural protein, human, UniProt Q15185 1-160, looked up)
chain: MQPASAKWYDRRDYVFIEFCVEDSKDVNVNFEKSKLTFSCLGGSDNFKHLNEIDLFHCIDPNDSKHKRTDRSILCCLRKGESGQSWPRLTKERAKLNWLSVDFNNWKAWEDDSDEDMSNFDRFSEMMNNMGGDEDVDLPEVDGADDDSQDSDDEKMPDLE
B3: GST-p23 D112A (natural protein, human, UniProt Q15185 1-160, looked up)
chain: B2 chain with A108D, D112A
B4: TH553, thioredoxin fusion of human AHR aa1-295 (CΔ553) (domain or fragment, UniProt P35869 1-295, looked up)
chain: MNSSSANITYASRKRRKPVQKTVKPIPAEGIKSNPSKRHRDRLNTELDRLASLLPFPQDVINKLDKLSVLRLSVSYLRAKSFFDVALKSSPTERNGGQDNCRAANFREGLNLQEGEFLLQALNGFVLVVTTDALVFYASSTIQDYLGFQQSDVIHQSVYELIHTEDRAEFQRQLHWALNPSQCTESGQGIEEATGLPQTVVCYNPDQIPPENSPLMERCFICRLRCLLDNSSGFLAMNFQGKLKYLHGQKKKGKDGSILPPQLALFAIATPLQPPSILEIRTKNFIFRTKHKLDF

Experiments:
[1] = target: GST-p23 D108A (human) (UniProt Q15185); assay: pull-down
[2] = target: GST-p23 D112A (human) (UniProt Q15185); assay: pull-down
[3] = target: GST-p23 W106A (human) (UniProt Q15185); assay: pull-down
[4] = target: B4; assay: pull-down
[5] = target: Full-length human ARNT expressed in Pichia (human, UniProt P27540 1-789); assay: native gel or EMSA
Chain of Full-length human ARNT expressed in Pichia (P27540 whole entry): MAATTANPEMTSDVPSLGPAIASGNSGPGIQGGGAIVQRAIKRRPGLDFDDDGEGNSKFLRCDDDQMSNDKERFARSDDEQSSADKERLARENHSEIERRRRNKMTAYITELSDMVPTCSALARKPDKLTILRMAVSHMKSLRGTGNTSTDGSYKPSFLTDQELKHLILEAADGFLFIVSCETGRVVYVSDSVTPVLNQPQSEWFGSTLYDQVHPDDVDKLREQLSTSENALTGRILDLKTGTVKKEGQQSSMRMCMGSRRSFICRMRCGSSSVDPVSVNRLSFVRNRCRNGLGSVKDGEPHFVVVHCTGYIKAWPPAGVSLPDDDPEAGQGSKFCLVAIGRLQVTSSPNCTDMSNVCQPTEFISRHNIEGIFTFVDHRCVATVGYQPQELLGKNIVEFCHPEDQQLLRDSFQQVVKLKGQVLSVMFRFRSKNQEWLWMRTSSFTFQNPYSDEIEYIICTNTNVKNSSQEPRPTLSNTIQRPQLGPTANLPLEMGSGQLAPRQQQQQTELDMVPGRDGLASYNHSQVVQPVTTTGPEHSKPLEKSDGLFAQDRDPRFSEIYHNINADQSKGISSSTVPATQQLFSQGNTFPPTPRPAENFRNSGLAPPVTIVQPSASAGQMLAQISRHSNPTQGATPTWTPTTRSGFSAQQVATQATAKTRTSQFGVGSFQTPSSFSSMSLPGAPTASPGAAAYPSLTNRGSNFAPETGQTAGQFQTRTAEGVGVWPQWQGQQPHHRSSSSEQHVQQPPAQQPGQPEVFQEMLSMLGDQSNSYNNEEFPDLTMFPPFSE

Histidine fusion of full-length human Hsp90 (from UniProt P07900 1-732) (natural protein)
Hsp90 co-precipitated, percent of wild-type p23 [1]: 12% | Hsp90 co-precipitated, percent of wild-type p23 [2]: 41% | Hsp90 co-precipitated, percent of wild-type p23 [3]: 19%

B1
binding result [4]: binds

B2
binding result [4]: binds

B3
binding result [4]: binds

B4
binding result [5]: binds
